The subject of experiment [1] is DNA sequence ACTTTA (T-box). As to the kind of experiment: Electrophoretic mobility shift assay (EMSA). The settings on record: competed by cold T-wt but not by cold T-mut. It is filed as binding. How it is done: A non-specific complex (*) in the presence of GST-TRAITS was also formed in the presence of GST only. Labeled free DNA (F) was also indicated. […] NIH3T3 cells were transiently transfected with empty vector (PM) or vectors expressing the full-length rat TRAITS (residues 1-262 of SEQ ID NO:14), its N-terminal (residues 1-113 of SEQ ID NO:14), or its C-terminal (residues 114-262 of SEQ ID NO:14) plus pG5CAT reporter and pSV-β-gal for normalization. Assays were performed after 24 hours of transfection. The fold activation of CAT reporter is shown with S.E.M. Assays were performed in triplicate in two separate experiments.
Two oligonucleotides: T-wt: (5′-[…] GAAGCTTACGTCGCG-3′ SEQ ID NO:33) and T-mut: (5′-[…] CGAAGCTTACGTCGCG-3′ SEQ ID NO:34) were synthesized and amplified by PCR. T4 polynucleotide kinase (Promega) was used to label T-wt & T-mut by [γ-^32P] ATP (NEN). Recombinant GST-TRAITS fusion protein was incubated with 500 μg poly [dI-dC] and EMSA was performed according to the protocol provided by Gel Shift Assay System (Promega).
A general note: Mobility shift assays separate free from complexed probe on a gel.

The next experiment deals with PC3 cells. As to the kind of experiment: Soft agar assay (anchorage-independent growth). It is filed as cell-based, human. To be noted: stable overexpression in PC3 sublines. How it is done:
FIGS. 4A-4D show the effect of calreticulin overexpression on colony formation of PC3 cells in a soft agar assay, PC3 (FIG. 4A), Mock (FIG. 4B), Crt 35 (FIG. 4C) and Crt 59 (FIG. 4). The soft agar assay was conducted in 6-well plates. The bottom agar is 2 ml 0.6% noble agar containing 1×RPMI 1640 medium supplemented with 10% fetal bovine serum (FBS). After the preparation of bottom agar, 1 ml of 0.3% top agar containing 5,000 cells and 1×RPMI 1640 medium supplemented with 10% FBS was added to form the top layer. The assay for each PC3 subline was carried out in duplicate and was repeated at least 3 times.
Colonies with greater than 125 um in diameter were counted in the quantification. Error bars represent standard error means (SEM).
Soft agar assay: The soft agar assay was conducted in 6-well plates. The bottom agar is 2 ml 0.6% noble agar containing 1×RPMI 1640 medium supplemented with 10% FBS. After the preparation of bottom agar, 1 ml of 0.3% top agar containing 5,000 cells and 1×RPMI 1640 medium supplemented with 10% FBS was added to form the top layer. The assay for each PC3 subline was carried out in duplicate and was repeated at least 3 times.

The test system of experiment [2] is TSU prostate cancer cells. As to the kind of experiment: Anchorage-independent growth of TSU cells. To be noted: overexpression in TSU cells. It is filed as cell-based, human. An excerpt: Anchorage-independent growth in soft agar correlates with the metastatic potential of cancer cells [Cifone and Fidler, Proc. Nat. Acad. Sci. USA, 77:1039-43 (1980)].
For another experiment, the system named is prostate cancer cell. As to the kind of experiment: Effect of calreticulin overexpression on other cellular functions. In kind it is cell-based.
Experiment [3] concerns xenograft rat Dunning AT3.1 prostate cancer cells. The experiment can be described thus: Metastasis of AT3.1 xenografts in nude mice. It is filed as in vivo. The settings on record: restoration of calreticulin expression.
For experiment [4] the following is noted: Repeat A of the Proline-rich Domain; read-out: Kd, high affinity Ca++ binding; cited from earlier work.

With “GST-TRAITS: E. coli-purified GST-TRAITS fusion protein”, the “binding to labeled T-box containing DNA” value in experiment [1] is given as “forms a DNA-protein complex”.

B1: calreticulin: multi-functional Ca++ binding protein of the endoplasmic reticulum, human SEQ ID NO:36; overexpressed from pcDNA3.1/crt (protein)
chain: MLLSVPLLLGLLGLAVAEPAVYFKEQFLDGDGWTSRWIESKHKSDFGKFVLSSGKFYGDEEKDKGLQTSQDARFYALSASFEPFSNKGQTLVVQFTVKHEQNIDCGGGYVKLFPNSLDQTDMHGDSEYNIMFGPDICGPGTKKVHVIFNYKGKNVLINKDIRCKDDEFTHLYTLIVRPDNTYEVKIDNSQVESGSLEDDWDFLPPKKIKDPDASKPEDWDERAKIDDPTDSKPEDWDKPEHIPDPDAKKPEDWDEEMDGEWEPPVIQNPEYKGEWKPRQIDNPDYKGTWIHPEIDNPEYSPDPSIYAYDNFGVLGLDLWQVKSGTIFDNFLITNDEAYAEEFGNETWGVTKAAEKQMKDKQDEEQRLKEEEEDKKRKEEEEAEDKEDDEDKDEDEEDEEDKEEDEEEDVPGQAKDEL
For orientation: Kd means the free concentration of one partner at which half of the binding sites on the other are occupied at equilibrium, for simple one-to-one binding. As for B1, the “colony formation in soft agar” value in the experiment with PC3 cells is “significantly inhibited the size and number of the PC3 colonies”. Besides, the anchorage-independent growth entry in experiment [2] was “markedly inhibited anchorage-independent growth”. In the experiment with prostate cancer cell, the “Ca++ ionophore-induced apoptosis” value is reported as “inhibits Ca^((+))((+)) ionophore-induced apoptosis”, the cell attachment entry is “enhances cell attachment” and the cell proliferation entry is “inhibits prostate cancer cell proliferation”. Also, in experiment [3], the metastasis of xenograft entry is listed as “markedly inhibits the metastasis”. In experiment [4], the dissociation constant (Kd) is 1.6 µM.

The values above are taken from patent US6780984B2, “Method for prognosing cancer and the proteins involved” (Northwestern University, priority 2000, dated 2004).
